Assay results taken from patent US20260242478A1 (published 2026).
Where no end group is shown, it is not given here.

B1: Phage-4009 (peptide)
peptide: GPKLCLPMWMCQGF
B2: Phage-3998 (peptide)
peptide: QMITCQPKWMCEGF
B3: Peptide-195 (peptide)
peptide: QLPCHYWGEWCPQA
modifications: cysteine pairing not given here; also: biotinylated (site not given here)
notes: PSMA peptide mask (P2)
B4: Phage-3997 (peptide)
peptide: VQPWCVPAWMCDGL
B5: Phage-3996 (peptide)
peptide: GTQACVPLWMCEGI
B6: Phage-4006 (peptide)
peptide: HVTMCSPNWMCWGL
B7: Phage-4002 (peptide)
peptide: MTNMCRPSWMCAVF
B8: Phage-4005 (peptide)
peptide: LTSWCVPQWMCDGL
B9: Phage-4008 (peptide)
peptide: IMQRCEPLWMCSGL
B10: Phage-3999 (peptide)
peptide: VQRVCVPTWMCDVF
B11: Phage-4007 (peptide)
peptide: PTSFCRPPWMCEGL
B12: Peptide-212 (peptide)
peptide: HCKFHDYHSWYVCY
modifications: cysteine pairing not given here; also: biotinylated, site not given here
notes: PSMA peptide mask (P2)
B13: Phage-4003 (peptide)
peptide: DIEVCRPHWMCEGF
B14: Phage-4001 (peptide)
peptide: DGLICQPSWMCTGL
B15: Peptide-194 (peptide)
peptide: SKLLCVPPWMCYHV
modifications: cysteine pairing not given here; also: biotinylated (site not given here)
notes: PSMA peptide mask (P2)
B16: Phage-4000 (peptide)
peptide: QEMTCVPRWMCSGF
B17: Phage-4004 (peptide)
peptide: EVKKCVPAWMCESQ
B18: Peptide-198 (peptide)
peptide: LTRCVPDWMCYRAV
modifications: cysteine pairing not given here; also: biotinylated (site not given here)
notes: PSMA peptide mask (P2)

What was measured:
[1] = target: T1, 006 PSMA Fab; test: clonal phage ELISA; biotinylated PSMA Fab on neutravidin plate, bound phage detected with anti-M13-HRP
T1 construct: also called Anti-PSMA Fab
Procedure: (§1) Clonal phage were harvested as crude supernatants and screened via standard ELISAs. […] Prior to the addition of clonal phage. wells were incubated with blocking buffer and PSMA antigen or blocking buffer alone. Without washing or aspirating, clonal phage supernatants were then added to the wells and incubated for a short time. Wells were then washed followed by detection of bound phage using a horse radish conjugated anti-M13 antibody.

[2] = target: T1, 006 PSMA Fab; test: clonal phage ELISA; biotinylated PSMA Fab on neutravidin plate, PSMA antigen as competitor, anti-M13-HRP
Procedure: as §1

[3] = target: T2, PSMA Fab (SEQ ID NOs: 19, 20); test: competition ELISA, peptide titrated against 0.3 nM PSMA Fab on captured biotinylated PSMA
T2 construct: also called 006 PSMA Fab; anti-PSMA Fab
Procedure: The concentration of peptide required to reduce the maximum signal by 50% (IC₅₀) was calculated in Graphpad Prism software.

Binder	Phage binding ELISA signal, Anti-PSMA Fab [1]	phage binding ELISA signal (Anti-PSMA Fab, wells pre-incubated with PSMA antigen) [2]	IC50 [3] [µM]
B1	0.459	0.0611	–
B2	0.589	0.0852	–
B3	–	–	19.3
B4	0.607	0.0983	–
B5	0.62	0.0787	–
B6	0.485	0.0703	–
B7	0.551	0.108	–
B8	0.523	0.0623	–
B9	0.471	0.0777	–
B10	0.584	0.07	–
B11	0.475	0.0592	–
B12	–	–	6.39
B13	0.542	0.0801	–
B14	0.554	0.0705	–
B15	–	–	10.3
B16	0.566	0.0832	–
B17	0.542	0.0538	–
B18	–	–	18.9
